Patent publication US20240131162A1 (MacroGenics, published 2024)
Positions count from the first letter of the chain named. Numbers in names are those of the source.

T1: CD32A^H (UniProt P12318 34-217, limits assumed)
T1 construct: also called FcγRIIA
T1 sequence (looked up): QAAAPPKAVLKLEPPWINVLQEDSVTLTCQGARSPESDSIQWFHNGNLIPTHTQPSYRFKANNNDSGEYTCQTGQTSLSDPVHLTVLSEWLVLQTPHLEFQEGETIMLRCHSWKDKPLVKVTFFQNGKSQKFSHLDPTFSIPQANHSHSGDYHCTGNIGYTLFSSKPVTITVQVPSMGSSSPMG

T2: CD32B (FcγRII-B) (UniProt P31994 43-217, limits assumed)
T2 sequence (looked up): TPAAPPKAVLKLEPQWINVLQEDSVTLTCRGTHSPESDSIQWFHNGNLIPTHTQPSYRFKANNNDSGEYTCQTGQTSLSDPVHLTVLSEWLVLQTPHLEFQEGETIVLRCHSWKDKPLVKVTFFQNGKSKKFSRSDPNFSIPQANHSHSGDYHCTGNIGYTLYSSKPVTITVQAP

B1: Fc mutant 12: F243L R292P Y300L (other, UniProt P01857-1 104-330, looked up)
chain: DKTHTCPPCPAPELLGGPSVFLLPPKPKDTLMISRTPEVTCVVVDVSHEDPEVKFNWYVDGVEVHNAKTKPPEEQYNSTLRVVSVLTVLHQDWLNGKEYKCKVSNKALPAPIEKTISKAKGQPREPQVYTLPPSRDELTKNQVSLTCLVKGFYPSDIAVEWESNGQPENNYKTTPPVLDSDGSFFLYSKLTVDKSRWQQGNVFSCSVMHEALHNHYTQKSLSLSPGK
notes: domain: Fc
B2: Fc mutant 18: F243L R292P Y300L V305I P396L (other, UniProt P01857-1 104-330, looked up)
chain: B1 chain with V85I, P176L
notes: domain: Fc; Same substitutions as the Fc of ch4D5-FcMT1
B3: Fc mutant 15: R292P V305I P396L (other, UniProt P01857-1 104-330, looked up)
chain: B1 chain with L23F, L80Y, V85I, P176L
notes: domain: Fc
B4: Fc mutant 17: F243L R292P V305I P396L (other, UniProt P01857-1 104-330, looked up)
chain: B1 chain with L80Y, V85I, P176L
notes: domain: Fc
B5: Fc mutant 16: F243L R292P Y300L P396L (other, UniProt P01857-1 104-330, looked up)
chain: B1 chain with P176L
notes: domain: Fc
B6: Fc mutant 13: F243L R292P V305I (other, UniProt P01857-1 104-330, looked up)
chain: B1 chain with L80Y, V85I
notes: domain: Fc
B7: ch4D5-FcMT1 (antibody, human IgG1, kappa)
heavy: QVQLQQSGPELVKPGASLKLSCTASGFNIKDTYIHWVKQRPEQGLEWIGRIYPTNGYTRYDPKFQDKATITADTSSNTAYLQVSRLTSEDTAVYYCSRWGGDGFYAMDYWGQGASVTVSSASTKGPSVFPLAPSSKSTSGGTAALGCLVKDYFPEPVTVSWNSGALTSGVHTFPAVLQSSGLYSLSSVVTVPSSSLGTQTYICNVNHKPSNTKVDKRVEPKSCDKTHTCPPCPAPELLGGPSVFLLPPKPKDTLMISRTPEVTCVVVDVSHEDPEVKFNWYVDGVEVHNAKTKPPEEQYNSTLRVVSILTVLHQDWLNGKEYKCKVSNKALPAPIEKTISKAKGQPREPQVYTLPPSRDELTKNQVSLTCLVKGFYPSDIAVEWESNGQPENNYKTTPLVLDSDGSFFLYSKLTVDKSRWQQGNVFSCSVMHEALHNHYTQKSLSLSPGK
light: DIVMTQSHKFMSTSVGDRVSITCKASQDVNTAVAWYQQKPGHSPKLLIYSASFRYTGVPDRFTGSRSGTDFTFTISSVQAEDLAVYYCQQHYTTPPTFGGGTKVEIKRTVAAPSVFIFPPSDEQLKSGTASVVCLLNNFYPREAKVQWKVDNALQSGNSQESVTEQDSKDSTYSLSSTLTLSKADYEKHKVYACEVTHQGLSSPVTKSFNRGEC
B8: ch4D5-wild-type Fc (antibody, human IgG1, kappa)
heavy: not shown
light: B7 light
notes: Chimeric 4D5; also called ch4D5-FcWT; WT

molecular target: T3, CD16A F158 (human, UniProt P08637 17-208, limits assumed); assay: SPR (BIAcore), koff compared with wild-type Fc
T3 construct: construct not described
T3 sequence (P08637 17-208 limits assumed): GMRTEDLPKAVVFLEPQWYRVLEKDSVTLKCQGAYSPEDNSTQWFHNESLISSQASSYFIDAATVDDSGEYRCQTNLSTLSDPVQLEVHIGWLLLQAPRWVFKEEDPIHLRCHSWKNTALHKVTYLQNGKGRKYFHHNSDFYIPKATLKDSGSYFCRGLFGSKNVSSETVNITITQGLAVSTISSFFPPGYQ

Binder	WT koff/mutant koff [ratio]
B1	4.6
B2	8.3
B3	1.9
B4	2.3
B5	5.6
B6	1.4

molecular target: T1, CD32A^H; assay: SPR (BIAcore), koff compared with wild-type Fc

Binder	WT koff/mutant koff [ratio]
B1	1
B2	3.2
B3	1.5
B4	0.8
B5	1.7
B6	0.2

molecular target: T2, CD32B (FcγRII-B); assay: SPR (BIAcore), koff compared with wild-type Fc

Binder	WT koff/mutant koff [ratio]
B1	0.6
B2	1.4
B3	0.9
B4	0.4
B5	1.1
B6	0.1

molecular target: T4, CD16A V158 (human, UniProt P08637 17-208, limits assumed); assay: SPR (BIAcore), koff compared with wild-type Fc
T4 construct: construct not described
T4 sequence (P08637 17-208 F176V limits assumed): as the sequence (P08637 17-208 limits assumed) above, with F160V counted along it

Binder	WT koff/mutant koff [ratio]
B1	7.4
B2	10.1
B3	1.9
B4	4
B5	10.1
B6	2.6

molecular target: T3, CD16A F158; assay: method not stated at Table 3

Binder	binding relative to wild-type Fc [fold]
B2	8.25
B3	1.9
B4	2.53
B5	5.62
B6	1.43

molecular target: T2, CD32B (FcγRII-B); assay: method not stated at Table 3

Binder	binding relative to wild-type Fc [fold]
B2	1.38
B3	0.92
B4	0.4
B5	1.07

molecular target: T4, CD16A V158; assay: method not stated at Table 3

Binder	binding relative to wild-type Fc [fold]
B2	10.1
B3	1.85
B4	5.37
B5	10.1
B6	2.56

molecular target: human CD16A (FcγRIII-A) (human, UniProt P08637 17-208, limits assumed); assay: method not stated
Sequence (P08637 17-208 limits assumed): as the sequence (P08637 17-208 limits assumed) above

Binder	fold increase in binding [fold]
B7	10

molecular target: T5, HER-2 (human, UniProt P04626 23-652, limits assumed); assay: SPR (BIAcore), HER-2 immobilised, antibody as analyte
T5 construct: also called HER2/neu; erbB-2
Experimental: The kinetic parameters of the binding of eluted and purified antibodies were analyzed using a BIACORE® assay (BIAcore instrument 1000, BIAcore Inc., Piscataway, N.J.) and associated software. HER-2 was immobilized on one of the four flow cells (flow cell 2) of a sensor chip surface through amine coupling chemistry (by modification of carboxymethyl groups with mixture of NHS/EDC) such that about 1000 response units (RU) of receptor was immobilized on the surface. Following this, the unreacted active esters were “capped off” with an injection of 1 M Et-NH2.

Binder	koff [s⁻¹]	kon [M⁻¹ s⁻¹]
B8	~3.2e-07	170000
